Reference: FireProtDB

B1: Aspartate aminotransferase, P00509 (parent)
chain: MFENITAAPADPILGLADLFRADERPGKINLGIGVYKDETGKTPVLTSVKKAEQYLLENETTKNYLGIDGIPEFGRCTQELLFGKGSALINDKRARTAQTPGGTGALRVAADFLAKNTSVKRVWVSNPSWPNHKSVFNSAGLEVREYAYYDAENHTLDFDALINSLNEAQAGDVVLFHGCCHNPTGIDPTLEQWQTLAQLSVEKGWLPLFDFAYQGFARGLEEDAEGLRAFAAMHKELIVASSYSKNFGLYNERVGACTLVAADSETVDRAFSQMKAAIRANYSNPPAHGASVVATILSNDALRAIWEQELTDMRQRIQRMRQLFVNTLQEKGANRDFSFIIKQNGMFSFSGLTKEQVLRLREEFGVYAVASGRVNVAGMTPDNMAPLCEAIVAVL
B2: Pseudoazurin, P80401 (parent)
chain: MFHHSLAAAAAALLALAAPGFAATHEVHMLNKGESGAMVFEPAFVRAEPGDVINFVPTDKSHNVEAIKEILPEGVESFKSKINESYTLTVTEPGLYGVKCTPHFGMGMVGLVQVGDAPENLDAAKTAKMPKKARERMDAELAQVN
B3: Alpha-lactalbumin, P00712 (parent)
chain: MMSFVSLLLVGILFHATQAEQLTKCEVFQKLKDLKDYGGVSLPEWVCTAFHTSGYDTQAIVQNNDSTEYGLFQINNKIWCKDDQNPHSRNICNISCDKFLDDDLTDDIVCAKKILDKVGINYWLAHKALCSEKLDQWLCEKL
B4: Cyanovirin-N, P81180 (parent)
chain: LGKFSQTCYNSAIQGSVLTSTCERTNGGYNTSSIDLNSVIENVDGSLKWQPSNFIETCRNTQLAGSSELAAECKTRAQQFVSTKINLDDHIANIDGTLKYE
B5: DNA-binding transcriptional dual regulator CRP, P0ACJ8 (parent)
chain: MVLGKPQTDPTLEWFLSHCHIHKYPSKSTLIHQGEKAETLYYIVKGSVAVLIKDEEGKEMILSYLNQGDFIGELGLFEEGQERSAWVRAKTACEVAEISYKKFRQLIQVNPDILMRLSAQMARRLQVTSEKVGNLAFLDVTGRIAQTLLNLAKQPDAMTHPDGMQIKITRQEIGQIVGCSRETVGRILKMLEDQNLISAHGKTIVVYGTR
B6: Phosphoglycerate kinase 1, P00558 (parent)
chain: MSLSNKLTLDKLDVKGKRVVMRVDFNVPMKNNQITNNQRIKAAVPSIKFCLDNGAKSVVLMSHLGRPDGVPMPDKYSLEPVAVELKSLLGKDVLFLKDCVGPEVEKACANPAAGSVILLENLRFHVEEEGKGKDASGNKVKAEPAKIEAFRASLSKLGDVYVNDAFGTAHRAHSSMVGVNLPQKAGGFLMKKELNYFAKALESPERPFLAILGGAKVADKIQLINNMLDKVNEMIIGGGMAFTFLKVLNNMEIGTSLFDEEGAKIVKDLMSKAEKNGVKITLPVDFVTADKFDENAKTGQATVASGIPAGWMGLDCGPESSKKYAEAVTRAKQIVWNGPVGVFEWEAFARGTKALMDEVVKATSRGCITIIGGGDTATCCAKWNTEDKVSHVSTGGGASLELLEGKVLPGVDALSNI
B7: Malate dehydrogenase, P80040 (parent)
chain: MRKKISIIGAGFVGSTTAHWLAAKELGDIVLLDFVEGVPQGKALDLYEASPIEGFDVRVTGTNNYADTANSDVIVVTSGAPRKPGMSREDLIKVNADITRACISQAAPLSPNAVIIMVNNPLDAMTYLAAEVSGFPKERVIGQAGVLDAARYRTFIAMEAGVSVEDVQAMLMGGHGDEMVPLPRFSTISGIPVSEFIAPDRLAQIVERTRKGGGEIVNLLKTGSAYYAPAAATAQMVEAVLKDKKRVMPVAAYLTGQYGLNDIYFGVPVILGAGGVEKILELPLNEEEMALLNASAKAVRATLDTLKSL
B8: Beta-xylanase, O68541 (parent)
chain: MNLSRRQLLALTSAGIAMGQASKLAAATKAAEQTGLKSAYKDNFLIGAALNATIASGADERLNTLIAKEFNSITPENCMKWGVLRDAQGQWNWKDADAFVAFGTKHNLHMVGHTLVWHSQIHDEVFKNADGSYISKAALQKKMEEHITTLAGRYKGKLAAWDVVNEAVGDDLKMRDSHWYKIMGDDFIYNAFTLANEVDPKAHLMYNDYNIERTGKREATVEMIERLQKRGMPIHGLGIQGHLGIDTPPIAEIEKSIIAFAKLGLRVHFTELDVDVLPSVWELPVAEVSTRFEYKPERDPYTKGLPQEMQDKLAKRYEDLFKLFIKHSDKIDRATFWGVSDDASWLNGFPIPGRTNYPLLFDRKLQPKDAYFRLLDLKR
B9: Inorganic pyrophosphatase, P0A7A9 (parent)
chain: MSLLNVPAGKDLPEDIYVVIEIPANADPIKYEIDKESGALFVDRFMSTAMFYPCNYGYINHTLSLDGDPVDVLVPTPYPLQPGSVIRCRPVGVLKMTDEAGEDAKLVAVPHSKLSKEYDHIKDVNDLPELLKAQIAHFFEHYKDLEKGKWVKVEGWENAEAAKAEIVASFERAKNK
B10: N-(5'-phosphoribosyl)anthranilate isomerase, P00912 (parent)
chain: MSVINFTGSSGPLVKVCGLQSTEAAECALDSDADLLGIICVPNRKRTIDPVIARKISSLVKAYKNSSGTPKYLVGVFRNQPKEDVLALVNDYGIDIVQLHGDESWQEYQEFLGLPVIKRLVFPKDCNILLSAASQKPHSFIPLFDSEAGGTGELLDWNSISDWVGRQESPESLHFMLAGGLTPENVGDALRLNGVIGVDVSGGVETNGVKDSNKIANFVKNAKK
B11: Triosephosphate isomerase, P00942 (parent)
chain: MARTFFVGGNFKLNGSKQSIKEIVERLNTASIPENVEVVICPPATYLDYSVSLVKKPQVTVGAQNAYLKASGAFTGENSVDQIKDVGAKWVILGHSERRSYFHEDDKFIADKTKFALGQGVGVILCIGETLEEKKAGKTLDVVERQLNAVLEEVKDWTNVVVAYEPVWAIGTGLAATPEDAQDIHASIRKFLASKLGDKAASELRILYGGSANGSNAVTFKDKADVDGFLVGGASLKPEFVDIINSRN

Variants of: B1
Details: Escherichia coli (strain K12); pH 7.5; 25 °C; Urea; enzyme activity; potassium phosphate 20 mM; structure 1AMQ; whole UniProt chain shown

Row | Variant | unfolding free energy
1 | C180W | 25.5 kJ/mol
2 | C180Y | 32.2 kJ/mol
3 | C180S | 33.9 kJ/mol
4 | C180F | 35.1 kJ/mol

Variants of: B2
Details: Paracoccus pantotrophus; pH 7; 25 °C; Urea; CD; Sodium phosphate 20 mM; Na2SO4 0.5 M; reversible: yes; structure 1ADW; whole UniProt chain shown

Row | Variant | denaturant m value
5 | Y96W | 1.19 kcal/mol/M

Variants of: B3
Details: Capra hircus; pH 7; 25 °C; Thermal; CD; sodium cacodylate 50 mM; CaCl2 1 mM; structure 1HFY; whole UniProt chain shown

Row | Variant | ddG of mutation (higher = less stable)
6 | T48V | -7.78 kJ/mol
7 | T48I | -5.73 kJ/mol

Variants of: B4
Details: Nostoc ellipsosporum; pH 6; Thermal; CD; Sodium phosphate 10 mM; structure 1N02; whole UniProt chain shown

Row | Variant | Tm | change of melting temperature, mutant - wild type (higher = more stable)
8 | P51G | 50.2 °C | 1.7 °C

Variants of: B5
Details: Escherichia coli (strain K12); pH 7.9; 20 °C; Thermal; CD; Tris-HCl 50 mM; KCl 100 mM; reversible: yes; structure 1G6N; whole UniProt chain shown

Row | Variant | ddG of mutation (higher = less stable) | unfolding free energy
9 | S129A | 1.09 kJ/mol | 29.5 kJ/mol

Variants of: B6
Details: Homo sapiens; pH 7.4; 25 °C; Urea; CD; HEPES 20mM; NaCl 200 mM; transition: 2; reversible: Yes; structure 2WZB; whole UniProt chain shown

Row | Variant | ddG of mutation (higher = less stable) | denaturant m value | denaturant midpoint (higher = more stable) | unfolding free energy
10 | T378P | 20.1 kJ/mol | 1.5 kcal/mol/M | 2.28 M | 14.6 kJ/mol
11 | E252A | 2.93 kJ/mol | 3.2 kcal/mol/M | 2.37 M | 31.8 kJ/mol

Variants of: B7
Details: Chloroflexus aurantiacus (strain ATCC 29366 / DSM 635 / J-10-fl); pH 7.5; Thermal; CD; potassium phosphate 10 mM; reversible: No; structure 1GUY; whole UniProt chain shown

Row | Variant | Tm | change of melting temperature, mutant - wild type (higher = more stable)
12 | T187C | 82.8 °C | 15 °C

Variants of: B8
Details: Cellvibrio mixtus; pH 7.5; Thermal; DSC; MOPS 20 mM; CaCl2 1 mM; reversible: No; structure 1UR1; whole UniProt chain shown

Row | Variant | Tm | change of melting temperature, mutant - wild type (higher = more stable)
13 | A334V G348D | 66.6 °C | 8 °C
14 | G348D | 64.6 °C | 6 °C
15 | A334V | 62.1 °C | 3.5 °C

Variants of: B9
Details: Escherichia coli (strain K12); pH 7; Thermal; CD; HEPES 20 mM; MgCl2 5 mM; structure 1FAJ; whole UniProt chain shown

Row | Variant | Tm
16 | D27N | 83 °C

Same assay, conditions: Escherichia coli (strain K12); pH 7; Thermal; CD; HEPES 20 mM; structure 1FAJ; whole UniProt chain shown

Row | Variant | Tm
17 | D27N | 58 °C

Variants of: B10
Details: Saccharomyces cerevisiae (strain ATCC 204508 / S288c); pH 6.5; 23 °C; GdnHCl; CD; Potassium phosphate 0.05 M; reversible: yes; whole UniProt chain shown

Row | Variant | ddG of mutation (higher = less stable)
18 | S212C | 4.18 kJ/mol

Variants of: B11
Details: Saccharomyces cerevisiae (strain ATCC 204508 / S288c); pH 7.4; Thermal; CD; Tris 50 mM; reversible: No; structure 1YPI; whole UniProt chain shown

Row | Variant | change of melting temperature, mutant - wild type (higher = more stable)
19 | C126A | -11.2 °C
20 | C126S | -11.2 °C

Same assay, conditions: Saccharomyces cerevisiae (strain ATCC 204508 / S288c); pH 8.5; Thermal; CD; Tris 50 mM; reversible: No; structure 1YPI; whole UniProt chain shown

Row | Variant | change of melting temperature, mutant - wild type (higher = more stable)
21 | C126S | -13 °C
